{"source": "patent US20240285753A1", "about": "(DUKE UNIVERSITY, published 2024)", "biological_target": "MERS spike (2P) (MERS-CoV, UniProt K9N5Q8 18-1291)", "experiment": "ELISA, coated spike, mAb titrated"}
{"binder": "DH1509 (antibody, V domains shown) VH: QVQLVESGGGVVQPGRSLRLSCAASGFTLSSHGIHWVRQAPGKGLEWVAVTSFDGRNKKFGDSVKGRFTISRDNSKNTVYLQMNSLRTEDTAVYYCAKDWGDDYSRWYFDLWGRGTLVTVSS VL: DIQMTQSPSSLSASVGDRVTITCQASHDITKYLNWYQQKPGRAPKLLIYDASNLKTGVPSRFSGSGSGTDFTFTITSLQPEDLATYYCQQSDVLPITFGQGTRLEIK", "values": [{"measurement": "EC50 (read off the curve)", "value": "~0.2", "unit": "µg/mL"}]}
